Experimental data from the nanobody polyreactivity screen of Harvey et al. (2022).

Experiment: yeast display, Sf9 membrane polyspecificity reagent, FACS + sequencing; frameworks hold sequencing errors
Summary of the method: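 Synthetic nanobody libraries on Saccharomyces cerevisiae BJ5465 were galactose-induced for 36–48 hours, stained 1 hour at 4 °C with 10% biotinylated, detergent-solubilized Sf9 membrane reagent and enriched on streptavidin microbeads. FACS then separated cells into low and high (top ~1%) gates by anti-HA (expression) and streptavidin (reagent binding) fluorescence. Genes were colony-PCR amplified, MiSeq 2 × 250 sequenced and CDR-length filtered. A clone's polyreactivity label is that of its gate of origin.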

Sequence	polyreactivity (PSR sort gate)
QVQLVESGGGLVQAGGSLRLSCAASGRTFGYYDMGWYRQAPGKGRELVAAITYSGGNTYYADSVKGRFTISRDNAKITVYLQMNSLKPEDTAVYSCAARSSFFPSYSRYDYWGQGTQVTVSS	high polyreactivity
QVQLVESGGGLVQAGGSLRLSCAASGRTFGYYTMGWYRQAPGKEREYVAAISGSGTITFYADSVKGRFTISRDNAKNTVYLQMNSLKPEDTAVYYCAADYRYGGSRGYRYDYWGQGTQVTVSS	low polyreactivity
QVQLVESGGGLVQAGGSLRLSCAASGRTFHAYAMGWYRQAPGKGRELVAAITRTGTTHYADSVKGRFTISRDNAKNTVYLQMNSLKPEDTAVYYCAAQHVRVDAQFVLQGYDYWGQGTQVTVSS	low polyreactivity
QVQLVESGGGLVQAGGSLRLSCAASGRTFHEYAMGWYRQAPGTERELVADISDGGSTNYADSVKGRFTISRDNAKNTVYLQMNSLKPEDTAVYYCNTDVPSAQYDYWGQGTQVTVSS	low polyreactivity
QVQLVESGGGLVQAGGSLRLSCAASGRTFHGYAMGWYRQAPGKERELVAAINASGGRTYYADSVKGRFTISRDNAKNTVYLQMNSLKPEDTAVYYCAVYSASFRYGLAYDYWGQGTQVTVSS	high polyreactivity
QVQLVESGGGLVQAGGSLRLSCAASGRTFHRYAMGWYRQAPGKERELVAAITSSGGSPNYADSVKGRFTISRDNAKNTVYLQMNSLKPEDTAVYYCATDRYRYTSHPWSRGFDYWGQGTQVTVSS	low polyreactivity
QVQLVESGGGLVQAGGSLRLSCAASGRTFHRYTMGWYRPAPGKERELVAAISRNGGSTYYADSVKGRFTISRDNAKNTVYLQMNSLKPEDTAVYYCNKPYWSDDYYSWGQGTQVTVSS	high polyreactivity
QVQLVESGGGLVQAGGSLRLSCAASGRTFHYNAMGWYRQAPGKERELVAAISFNGGGTYYADSVKGRFTISRDNAKNTVYLQMNSLKPEDTAVYYCATDVPSRYDYWGQGTQVTVSS	low polyreactivity
QVQLVESGGGLVQAGGSLRLSCAASGRTFHYYAMGWYRQAPGKERELVAAITRGGNTYYADSVKGRFTISRDNAKNTVYLQMNSLKPEDTAVYYCAKTAAVNGGYDYWGQGTQVTVSS	high polyreactivity
QVQLVESGGGLVQAGGSLRLSCAASGRTFIANAMGWSRQAPGKERELVAAISWSGGSTYYADSVKGRFTISRDNAKNTVYLQMNSLKPEDTAVYYCTAKRFRTGFDYWGQGTQVTVSS	low polyreactivity
QVQLVESGGGLVQAGGSLRLSCAASGRTFIFYAMGWYRPAPGNVRELVAAITLRGGGTDYADSVKGRFTISRDNAKNTVYLQMTSQQPEETAVYYCNADGYPVPRRFDPYSYLSDYWGQGTQVTVSS	low polyreactivity
QVQLVESGGGLVQAGGSLRLSCAASGRTFIFYAMGWYRQAPGNERELVAAITLRGGGTDYADSVKGRFTISRDNAKYNVYLQMNSQKPEETAVYYCNADGYAVPRWFDPYSYLSDYWGQGTQVTVSS	low polyreactivity
QVQLVESGGGLVQAGGSLRLSCAASGRTFIFYAMGWYRQAPVKERELVAAITYSGTSTYYADSVKGRFTISRDNAKNTVYLQMNSLKPEDTAVYYCAKDGQRDANYYWGQGTQVTVSS	low polyreactivity
QVQLVESGGGLVQAGGSLRLSCAASGRTFIGNALGWYRQAPGKERELVASITRSGGSTYYADSVKGRFTISRDNAKNTVYLQMNSLKPEDTAVYYCAARVYTYYYDLHKRYYWGQGTQVTVSS	high polyreactivity
QVQLVESGGGLVQAGGSLRLSCAASGRTFIGNAMGWYRQAPGKERELVAGIDSDGSTNYADSVKGRFTISRDNAKNTVYLQMNSLKPEDTAVYYCAAVQGYRFYEYYYWGQGTQVTVSS	low polyreactivity
QVQLVESGGGLVQAGGSLRLSCAASGRTFIKYALGSYRQAPGKERELVAAISRNGGSTNYADSVKGRFTISRDNAKNTVYLLMNSLKPEDPAVYYCAAVGTVSRTVGYNYWGQGSQVTVSS	high polyreactivity
QVQLVESGGGLVQAGGSLRLSCAASGRTFILNAMGWYRQAPGKERELVAAISWSGGSTYYADSVKGRFTISRDTAKNTVYLQMNSLKPEDTAVHYCATVRAWIPSGDYEYWGQGTQVTVSS	low polyreactivity
QVQLVESGGGLVQAGGSLRLSCAASGRTFIPYAMGWYRQAPGKERELVAAISTTAGTTYYADSVKGRFTISRDNAKNTVYLQMNSLKPEDTAVYYCAARRRWYRRYGGDFWGQGTQVTVSS	high polyreactivity
QVQLVESGGGLVQAGGSLRLSCAASGRTFIPYAMGWYRQAPGKERELVAAISWSGGGTYYADSVKGRFTISRDNAKNTVYLQMNSLKPEDTAVYYCAAEYWDSYGYWTFDYWGQGTQVTVSS	high polyreactivity
QVQLVESGGGLVQAGGSLRLSCAASGRTFIPYAMGWYRQAPGKERQLVATIRRGGSTYYADSVKGRFTISRDNAKNTVYLQMNSLKPEDTAEYYCAATRYSFGPRRVDYWGQGTQVTVSS	high polyreactivity
QVQLVESGGGLVQAGGSLRLSCAASGRTFIRNAMGWYRQAPGKERELVAAISRSGGRTYYADSVKGRFTISRDNAKNTVYLQMNSLKPEDTAVYYCAAGSYQRYAFDYWGQGTQVTVSS	high polyreactivity

Sequence	polyreactivity (PSR sort gate)
QVQLVESGGGLVQAGGSLRLSCAASGRTFIRNAMGWYRQAPGKERELVASISRRGGSTYYADSVKGRYTISRDNAKNTVYLQMNSLKPEDTAVYYCAKAYAFVTSGLGYDYWGQGTQVTVSS	high polyreactivity
QVQLVESGGGLVQAGGSLRLSCAASGRTFIRYAMGWYRQAPRKEREMVAAISYSGGTTYYADSVKGRFTISRDNAKNTVYLQMNSLKPEDTAVYYCARAGGYPLSRYGYWGQGTQVTVSS	high polyreactivity
QVQLVESGGGLVQAGGSLRLSCAASGRTFIRYCMGWYRQAPGKERELVAAITSRGGRTYYADSVKGRFTISRDNAKNTVYLQMNSLIREDTAVYYCAADTTWYSRYRHLWYRYYYWGQGTQVTVSS	high polyreactivity
QVQLVESGGGLVQAGGSLRLSCAASGRTFISIVMAWYRQAPGKERELVAAIRSSGRTYYADSVKGRFTISRDNAKITVYLQINSLKPVDTAVYYCAAPGGLLGSGYWGQGTLVTVSS	low polyreactivity
QVQLVESGGGLVQAGGSLRLSCAASGRTFIVNTMGWYRQAPGKERELVAAITARGGRTYYADSVKGRFTISRDNAKNTVYLQMNSLIPEDTAVYYCNASTPPREAERYYWGQGTQVTVSS	low polyreactivity
QVQLVESGGGLVQAGGSLRLSCAASGRTFIVYAMGWYRQAPGKERELVAGITRGSTNYADSVKGRFTISRDNAKNTVYLQMNSLKPEDTAVYYCAARSSRRGPISEGDYWGQGTQVTVSS	high polyreactivity
QVQLVESGGGLVQAGGSLRLSCAASGRTFIWYVMGWYRQAPGKERELVATISYGGITYYADSVKRRFTISRDNAKNTVYLQMNSLKPEDTAVYYCAAYKYTHKPHGDYWGQGTQVTVSS	high polyreactivity
QVQLVESGGGLVQAGGSLRLSCAASGRTFIYYAMGWNRQAPGKERELVAGITYSVGSTYYADSVKGRFTISRDNEKNTVYLQMNSLKPEDTAVYYCAADATFESDWGQGTQVTVSS	low polyreactivity
QVQLVESGGGLVQAGGSLRLSCAASGRTFIYYAMGWYRQAPGKERELVAAITYSGTSTYYADAVKGRFTISRDNAKNTVYLQMNSLKPEDTAVYYCAKDGQRDAKYNWGQGTQVTVSS	low polyreactivity
QVQLVESGGGLVQAGGSLRLSCAASGRTFIYYAMGWYRQAPGKERELVASITTGGRTYYADSVKGRFTISRDNAKNTVYLQMNSLKPEDTAGYYCAAVRRIRRPRYGYWGQGTQVTVSS	high polyreactivity
QVQLVESGGGLVQAGGSLRLSCAASGRTFKFNAMGWYRQAPGKERELVAGITWTGSTTSYADSVKGRFTISRDNAKNTVYLQMNSLKPEDTAVYYCDADKIRFWYHGFYYRGQGTQVTVSS	low polyreactivity
QVQLVESGGGLVQAGGSLRLSCAASGRTFKFNTMGWYRQAPGKEREVVAAISWTGAITHYADSVKGRFTISRDNAKNTVYLQMNSLKPEDTAVYYCNSDPYRRIYNYWGQGTQVTVSS	low polyreactivity
QVQLVESGGGLVQAGGSLRLSCAASGRTFKFYAMGWYRQAPGKERELVAAISSSGGRTYYADSVKGRFTISRDNAKNTVYLQMNSLTPEDTAVYYCAAVPGSKFVQKDDYWGQGTQVTVSS	low polyreactivity
QVQLVESGGGLVQAGGSLRLSCAASGRTFKGNAMGWYRPAPGKERELVAVITGSGGSTYYADSVKGRFTISRDNAKNTVYLQMHSLKPEDTAVYYCAKQVRSYVRWEYDYWGQGTQGTVSS	low polyreactivity
QVQLVESGGGLVQAGGSLRLSCAASGRTFKGNAMGWYRQAPGKERELVAAISKSGGRTYYADSVKGRFTISRDNAKNTVYLQMNSLKPEDTAVYYCAAGYYPSSSGDDYWGQGTQVTVSS	high polyreactivity
QVQLVESGGGLVQAGGSLRLSCAASGRTFKGNAMGWYRQAPGKERKLVAVITGSGGSTYYADSVKGRFTISRDNAKNTVYLQMNSLKPEDTAVYYCAAESEPIRIRERDYWGQGTHVTVSS	low polyreactivity
QVQLVESGGGLVQAGGSLRLSCAASGRTFKIYAMGWYRQAPGKERELVAAIRRSGGNTYYADSVKGRFTISRDNAKNTVYLQMNSLKPEDTAVYYCATRGYPGGYQRSQSMYYWGQGTQVTVSS	high polyreactivity
QVQLVESGGGLVQAGGSLRLSCAASGRTFKKYAMGWFRQAPGKERELVAAITGSGGSTYYADSVKGRFTISRDNAKNTVYLQMNSLKPEDTADYYCAAYAYGVWHSQDGGNYWGQGTQVTVSS	low polyreactivity
QVQLVESGGGLVQAGGSLRLSCAASGRTFKKYAMGWYRQAPGKERELVAAITSRGGSTYYADSVKGRFTISRDNAKNTVYLQMNSLKPEDTAVYYCNAVRGWLYVFSYPYWDDEYWGQGTQVTVSS	high polyreactivity
QVQLVESGGGLVQAGGSLRLSCAASGRTFKKYAMGWYRQAPGKERELVSAITGSVGSTYYADSVKGRFTISRDNAKNTVYLQMNSLIPEDTAVYYCAAYAYGVWHSQDGGNYWGQGTQVTVSS	low polyreactivity
